Laboratory results: US20220145291A1

Target: FasR on T-cells (Jurkat cells) (UniProt P25445)
Experiment: cell-based or functional assay

Sequence of streptavidin-FasL (P22629 37-163): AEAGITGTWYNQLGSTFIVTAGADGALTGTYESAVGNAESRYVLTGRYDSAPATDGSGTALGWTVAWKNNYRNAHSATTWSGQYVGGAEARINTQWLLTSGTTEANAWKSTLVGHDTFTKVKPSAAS
Sequence of FasR on T-cells (Jurkat cells) (P25445 26-335 limits assumed): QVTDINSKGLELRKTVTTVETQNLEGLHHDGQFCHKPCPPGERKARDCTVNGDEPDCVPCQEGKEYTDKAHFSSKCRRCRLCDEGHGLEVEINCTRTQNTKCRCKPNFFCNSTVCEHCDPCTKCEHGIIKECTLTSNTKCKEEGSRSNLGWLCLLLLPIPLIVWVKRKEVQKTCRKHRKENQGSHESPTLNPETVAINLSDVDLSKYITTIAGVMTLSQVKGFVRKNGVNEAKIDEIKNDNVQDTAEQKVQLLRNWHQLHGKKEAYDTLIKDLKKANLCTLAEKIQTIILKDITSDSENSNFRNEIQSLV

apoptosis in Jurkat cells, flow cytometry (Annexin V); SA-FasL tethered on exosomes, 1 µg exosome protein: 17.5%
apoptosis in Jurkat cells, flow cytometry (Annexin V); SA-FasL tethered on exosomes, 20 µg exosome protein: 99.3%
Substance: streptavidin-FasL (from UniProt P22629 37-163) (ligand)
